Experimental data taken from patent US20210252040.

Biological target: α-enolase of Enterococcus faecalis V583, surface-expressed

B1: human glu-plasminogen (Haematologic technologies) (protein)
chain: KVYLSECKTGNGKNYRGTMSKTKNGITCQKWSSTSPHRPRFSPATHPSEGLEENYCRNPDNDPQGPWCYTTDPEKRYDYCDILECEEECMHCSGENYDGKISKTMSGLECQAWDSQSPHAHGYIPSKFPNKNLKKNYCRNPDRELRPWCFTTDPNKRWELCDIPRCTTPPPSSGPTYQCLKGTGENYRGNVAVTVSGHTCQHWSAQTPHTHNRTPENFPCKNLDENYCRNPDGKRAPWCHTTNSQVRWEYCKIPSCDSSPVSTEQLAPTAPPELTPVVQDCYHGDGQSYRGTSSTTTTGKKCQSWSSMTPHRHQKTPENYPNAGLTMNYCRNPDADKGPWCFTTDPSVRWEYCNLKKCSGTEASVVAPPPVVLLPDVETPSEEDCMFGNGKGYRGKRATTVTGTPCQDWAAQEPHRHSIFTPETNPRAGLEKNYCRNPDGDVGGPWCYTTNPRKLYDYCDVPQCAAPSFDCGKPQVEPKKCPGRVVGGCVAHPHSWPWQVSLRTRFGMHFCGGTLISPEWVLTAAHCLEKSPRPSSYKVILGAHQEVNLEPHVQEIEVSRLFLEPTRKDIALLKLSSPAVITDKVIPACLPSPNYVVADRTECFITGWGETQGTFGAGLLKEAQLPVIENKVCNRYEFLNGRVQSTELCAGHLAGGTDSCQGDSGGPLVCFEKDKYILQGVTSWGLGCARPNKPGVYVRVSRFVTWIEGVMRNN
- plasmin activity assay with enolase-blocking antibodies: The data is consistent with surface-expressed alpha-enolase being one of multiple PLG receptors on E. faecalis
